Substrate in this series: CC/C(=C(\c1ccc(O)cc1)c1ccc(OCCN(C)C)cc1)c1ccccc1
The series is described as follows: Initial rate kinetics of TAM sulfation. The class given is biochemical, human. To be noted: other: TAM as substrate, pH 7.2, 25.0 °C.

Broadly, the kcat is the number of substrate molecules converted per active site and unit of time at saturation.

B1: SULT1A1 (Homo sapiens) (protein)
chain: MELIQDTSRPPLEYVKGVPLIKYFAEALGPLQSFQARPDDLLISTYPKSGTTWVSQILDMIYQGGDLEKCHRAPIFMRVPFLEFKAPGIPSGMETLKDTPAPRLLKTHLPLALLPQTLLDQKVKVVYVARNAKDVAVSYYHFYHMAKVHPEPGTWDSFLEKFMVGEVSYGSWYQHVQEWWELSRTHPVLYLFYEDMKENPKREIQKILEFVGRSLPEETVDFVVQHTSFKEMKKNPMTNYTTVPQEFMDHSISPFMRKGMAGDWKTTFTVAQNERFDADYAEKMAGCSLSFRSEL
Regarding B1, the kcat (E·(PAP)2 form, [PAPS] 250 μM) was determined as 11 s⁻¹. For the setting “E·PAP form, [PAPS] 4.0 μM”, the Km is on record as 14 (1.0) μM and the kcat amounted to 2 s⁻¹.

The values are drawn from paper PMC4230322.
